Source: US20230348630A1

What was measured:
[1] = target: CD3D&E protein (Cat #: CT038-H2508H, Sino Biological) (human) (UniProt P04234); assay: phage ELISA on CD3D&E protein, detection with HRP anti-M13 antibody
[2] = target: BCMA-his protein (Cat #: BCA-H522y, ACRO) (human) (UniProt Q02223); assay: phage ELISA on BCMA-his protein, detection with HRP anti-M13 antibody
BCMA-his protein (Cat #: BCA-H522y, ACRO) (human), sequence (Q02223 1-54 limits assumed): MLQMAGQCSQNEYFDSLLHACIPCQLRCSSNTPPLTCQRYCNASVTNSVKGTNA

CD3D&E protein (Cat #: CT038-H2508H, Sino Biological) (human), sequence (P04234 22-105, chain 1 of 2): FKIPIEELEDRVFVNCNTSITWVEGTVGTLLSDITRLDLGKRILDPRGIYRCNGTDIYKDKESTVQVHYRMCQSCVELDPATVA
CD3D&E protein (Cat #: CT038-H2508H, Sino Biological) (human), sequence (P07766 23-126, chain 2 of 2, further chain): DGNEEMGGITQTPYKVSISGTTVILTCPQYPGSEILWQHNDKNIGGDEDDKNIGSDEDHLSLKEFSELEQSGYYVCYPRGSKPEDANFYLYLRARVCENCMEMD

B1: anti-CD3D&E antibody D1E9 scFv displayed on phage (scFv, part only; not given: scFv linker, phage coat fusion, V domains shown, not shown: another chain or arm of the molecule; large carriers; small tags and cut ends)
VH: EVQLVESGGGLVQPGRSLRLSCAASGFTFDDFAMHWVRQAPGKGLEWVSGITWNSGSVGYADSVKGRFTISRDNAKKSLYLQMNSLRAEDTALYYCAKDRSGYGHYYYGMDVWGQGTTVTVAS
VL: EIVMTQSPATLSVSPGERATLSCRASTSVSHNVAWYQQKPGQAPRLLIYGASTKVTGIPARFSGSGSGTEFTLTISSLQSEDFAVYYCQHYINWPLTFGGGTKVEIK
- EC50 (read off the curve) [1]: 20 µg/mL

B2: anti-CD3D&E antibody 7-1A12 scFv displayed on phage (scFv, part only; not given: scFv linker, part only)
scFv, part: EVQLVESGGGLVQPGRSLRLSCAASGFTFSDYTMHWVRQAPGKGLEWVSGISWNTGTIGYADSVKGRFTISRDNAKKSLYLQMNSLRAEDTALYYCAKDNSGYGHYYFGMDVWGQGTTVTVASEIVMTQSPATLSVSPGERATLSCRASQSVSRNVAWYQQKPGQAPRLLIYGASTRQTGIPARFSGSGSGTEFTLTISSLQSEDFAVYYCQSYINWPLQFGGGTKVEIK
- EC50 (read off the curve) [1]: 4 µg/mL

B3: anti-BCMA antibody A6-3 scFv displayed on phage (scFv, part only; not given: scFv linker, phage coat fusion, V domains shown, not shown: another chain or arm of the molecule; large carriers; small tags and cut ends)
VH: QVQLVQSGAEVKKPGASVKVSCKASGYTFTNHIIHWVRQAPGQGLEWMGYINPYPGYHGYNDKFSGRATMTSDTSTSTVYMELSSLRSEDTAVYYCARDGYYRDQDVLDYWGQGTLVTVSS
VL: DIQMTQSPSSLSASVGDRVTITCKASQDISQYLNWYQQKPGKAPKLLIYYTSGLHPGVPSRFSGSGSGTDFTFTISSLEPEDIATYYCQQGYALPWTFGQGTKVEIK
- EC50 (read off the curve) [2]: 1 µg/mL
